{"source": "patent US20220411520A1", "about": "(GMAX BIOPHARM, published 2022)", "binders": {"B1": {"name": "GIPR antibody/GLP-1 fusion protein GLP-1-Linker-L7H6 (protein, part only; not given: heavy and light constant regions, not shown: a dimerising Fc or GST)", "light, part": "HGEGTFTSDVSSYLEGQAAKEFIAWLVKGGGGGSGGGGSGGGGSDIVLTQSPASLAVSPGQRATITCRASQSVNTAVYSYIHWYQQKPGQPPKLLIKYASNLESGVPARFSGSGSGTDFTLTINPVEANDAANYYCQHSFDFPYTFGGGTKVEIKR", "heavy, part": "QVQLQESGPGLVKPSQTLSLTCTVSGYSITSDYAWNWIRQPPGKGVEWMGYISYRGIATYKPSLKSRITISRDTSKNQFSLKLSSVTAADTAVYYCVRGEYGPGNFDFWGQGTTVTVSS"}, "B2": {"name": "hGIPR antibody L7H6 (antibody, V domains shown)", "VH": "QVQLQESGPGLVKPSQTLSLTCTVSGYSITSDYAWNWIRQPPGKGVEWMGYISYRGIATYKPSLKSRITISRDTSKNQFSLKLSSVTAADTAVYYCVRGEYGPGNFDFWGQGTTVTVSS", "VL": "DIVLTQSPASLAVSPGQRATITCRASQSVNTAVYSYIHWYQQKPGQPPKLLIKYASNLESGVPARFSGSGSGTDFTLTINPVEANDAANYYCQHSFDFPYTFGGGTKVEIKR"}, "B3": {"name": "GIPR antibody/GLP-1 fusion protein GLP-1-Linker-V1W5 (other)", "light": "HGEGTFTSDVSSYLEGQAAKEFIAWLVKGGGGGSGGGGSGGGGSDIVLTQSPASLAVSPGQRATITCRASQSVNTAVYSYIHWYQQKPGQPPKLLIKYASNLESGVPARFSGSGSGTDFTLTINPVEANDAANYYCQHSFDFPYTFGGGTKVEIKRTVAAPSVFIFPPSDEQLKSGTASVVCLLNNFYPREAKVQWKVDNALQSGNSQESVTEQDSKDSTYSLSSTLTLSKADYEKHKVYACEVTHQGLSSPVTKSFNRGEC", "heavy": "QVQLQESGPGLVKPSQTLSLTCTVSGYSITSDYAWNWIRQPPGKGVEWMGYISYRGIATYKPSLKSRITISRDTSKNQFSLKLSSVTAADTAVYYCVRGEYGPGNFDFWGQGTTVTVSSASTKGPSVFPLAPCSRSTSESTAALGCLVKDYFPEPVTVSWNSGALTSGVHTFPAVLQSSGLYSLSSVVTVPSSSLGTKTYTCNVDHKPSNTKVDKRVESKYGPPCPPCPAPEAAGGPSVFLFPPKPKDTLYITREPEVTCVVVDVSQEDPEVQFNWYVDGVEVHNAKTKPREEQFNSTYRVVSVLTVLHQDWLNGKEYKCKVSNKGLPSSIEKTISKAKGQPREPQVYTLPPSQEEMTKNQVSLTCLVKGFYPSDIAVEWESNGQPENNYKTTPPVLDSDGSFFLYSRLTVDKSRWQEGNVFSCSVMHEALHNHYTQKSLSLSLG"}, "B4": {"name": "hGIPR antibody L10H8 (antibody, V domains shown)", "VH": "QVQLQQSGAEVKKPGSSVKVSCKASGGTFSSYAISWVRQAPGQGLEWMGGIIPTFGTANYAQKFQGRVTITADESTSTAYMELSSLRSEDTAVYYCAQGPIVGAPTDYWGKGTLVTVSS", "VL": "SYVLTQPPSASGTPGQRVAISCSGSNSNIGSNTVHWYQQLPGAAPKLLIYSNNQRPSGVPDRFSGSNSGTSASLAISRLQSEDEADYYCAAWDDSLNGVVFGGGTKVTVL", "notes": "Recombinantly expressed whole antibody; also called recombinant anti-hGIPR functional antibody"}}, "key": {"[1]": {"biological_target": "human GLP-1 receptor (hGLP-1R) (human, UniProt P43220 24-463)", "test": "cell-based or functional assay"}, "[2]": {"biological_target": "T1, human gastric inhibitory polypeptide receptor (hGIPR) (human) (UniProt P48546)", "T1 sequence": "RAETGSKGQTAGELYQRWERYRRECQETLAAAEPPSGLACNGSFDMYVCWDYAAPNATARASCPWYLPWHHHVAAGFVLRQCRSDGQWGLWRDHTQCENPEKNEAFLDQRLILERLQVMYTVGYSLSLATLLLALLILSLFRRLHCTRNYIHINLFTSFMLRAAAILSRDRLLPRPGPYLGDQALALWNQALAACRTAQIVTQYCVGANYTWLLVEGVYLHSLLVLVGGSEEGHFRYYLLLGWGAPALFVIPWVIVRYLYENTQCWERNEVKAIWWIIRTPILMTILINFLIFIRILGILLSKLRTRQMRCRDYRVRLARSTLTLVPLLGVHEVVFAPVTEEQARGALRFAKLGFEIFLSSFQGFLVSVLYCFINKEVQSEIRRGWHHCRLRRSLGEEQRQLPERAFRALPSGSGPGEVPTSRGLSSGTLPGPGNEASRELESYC", "test": "cell-based or functional assay"}, "[3]": {"biological_target": "T2, human gastric inhibitory polypeptide receptor (hGIPR) (human, UniProt P48546 22-466)", "T2 sequence": "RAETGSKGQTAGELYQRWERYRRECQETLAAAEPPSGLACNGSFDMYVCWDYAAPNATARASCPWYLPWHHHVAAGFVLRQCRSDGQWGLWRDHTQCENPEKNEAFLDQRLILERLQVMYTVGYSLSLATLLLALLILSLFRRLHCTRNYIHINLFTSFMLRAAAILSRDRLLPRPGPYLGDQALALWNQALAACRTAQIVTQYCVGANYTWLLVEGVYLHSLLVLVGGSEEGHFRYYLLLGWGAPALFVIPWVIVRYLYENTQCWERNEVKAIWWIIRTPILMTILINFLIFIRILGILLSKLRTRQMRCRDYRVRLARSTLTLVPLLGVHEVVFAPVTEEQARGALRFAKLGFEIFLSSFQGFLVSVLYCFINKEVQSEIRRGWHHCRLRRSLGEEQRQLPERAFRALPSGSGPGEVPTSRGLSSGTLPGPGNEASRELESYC", "test": "cell-based or functional assay"}, "[4]": {"biological_target": "T3, monkey GIP receptor (maGIPR) (monkey, UniProt P48546 22-466 (human entry), limits assumed)", "T3 chain": "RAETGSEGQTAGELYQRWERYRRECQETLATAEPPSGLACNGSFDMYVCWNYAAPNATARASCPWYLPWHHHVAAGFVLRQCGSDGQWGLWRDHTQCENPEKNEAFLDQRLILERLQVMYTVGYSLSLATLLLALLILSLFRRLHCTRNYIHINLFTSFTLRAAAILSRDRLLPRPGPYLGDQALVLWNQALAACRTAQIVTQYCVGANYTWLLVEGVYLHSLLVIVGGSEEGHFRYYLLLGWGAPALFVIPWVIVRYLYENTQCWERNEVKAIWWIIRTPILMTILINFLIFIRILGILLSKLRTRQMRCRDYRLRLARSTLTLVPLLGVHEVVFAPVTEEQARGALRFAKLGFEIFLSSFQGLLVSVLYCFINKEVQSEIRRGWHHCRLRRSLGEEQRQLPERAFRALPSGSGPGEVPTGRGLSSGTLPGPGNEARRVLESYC", "test": "cell-based or functional assay"}, "[5]": {"biological_target": "T2, human gastric inhibitory polypeptide …", "test": "FACS on CHO-DHFR-hGIPR cells", "protocol": "PBS containing 10 mM EDTA was used to detach the CHO-DHFR-hGIPR cells and 10⁵ cells/tube was distributed into 1.5 mL EP tubes, and the supernatant was removed after centrifugation. The negative control sample was resuspended with a loading buffer (PBS, 2% FBS). For the positive control, 200 μL GIPR antibody solution of specific concentration was added to the cells and incubated at room temperature; after incubation, the cells were then centrifuged at 1500 rpm to remove the supernatant, washed with a FACS loading buffer and centrifuged again. The cells were resuspended with addition (200 μL/well) of a FITC labeled goat anti-mouse fluorescent antibody or PE labeled goat anti-human fluorescent antibody at 1:50 dilution and incubated at room temperature for 30 min in the dark. The supernatant was removed after centrifugation, and cells were washed with FACS loading buffer, centrifuged again and resuspended with the loading buffer for FACS analysis. The recombinant anti-hGIPR functional antibody specifically binds to GIPR-expressing CHO-DHFR-GIPR cells."}}, "data": [{"binder": "B1", "values": [{"measurement": "reporter gene assay (CRE-Luciferase) in CHO-DHFR- cells co-expressing hGLP1R: activation (EC50)", "setting": "[1]", "value": 0.04, "unit": "nM"}, {"measurement": "direct cAMP assay: inhibition of GIP-activated hGIPR signaling in CHO-DHFR cells stably expressing human GIPR (IC50)", "setting": "[2]", "value": 14.9, "unit": "nM"}]}, {"binder": "B2", "values": [{"measurement": "direct cAMP assay: inhibition of GIP-activated hGIPR signaling in CHO-DHFR cells stably expressing human GIPR (IC50)", "setting": "[3]", "value": 7.6, "unit": "nM"}]}, {"binder": "B3", "values": [{"measurement": "reporter gene assay (CRE-Luciferase) in CHO-DHFR- cells co-expressing hGLP-1R: activation (EC50)", "setting": "[1]", "value": 17.4, "unit": "pM"}, {"measurement": "direct cAMP assay: inhibition of GIP-activated hGIPR signaling in CHO-DHFR cells stably expressing human GIPR (IC50)", "setting": "[3]", "value": 7.03, "unit": "nM"}, {"measurement": "direct cAMP assay: inhibition of GIP-activated monkey GIPR signaling (IC50)", "setting": "[4]", "value": 4.3, "unit": "nM"}]}, {"binder": "B4", "values": [{"measurement": "binding result", "setting": "[5]", "value": "binds"}]}]}
